Sequences and labels used below:
T1: Macaca fascicularis GP130 extracellular domain expressed with a C-terminal myc-myc-hexahistidine tag (Macaca fascicularis, UniProt P40189 23-619 (human entry))
T1 construct: Monomeric reagent; also called mfGP130-mmH; mfGP130-MMH
T1 chain: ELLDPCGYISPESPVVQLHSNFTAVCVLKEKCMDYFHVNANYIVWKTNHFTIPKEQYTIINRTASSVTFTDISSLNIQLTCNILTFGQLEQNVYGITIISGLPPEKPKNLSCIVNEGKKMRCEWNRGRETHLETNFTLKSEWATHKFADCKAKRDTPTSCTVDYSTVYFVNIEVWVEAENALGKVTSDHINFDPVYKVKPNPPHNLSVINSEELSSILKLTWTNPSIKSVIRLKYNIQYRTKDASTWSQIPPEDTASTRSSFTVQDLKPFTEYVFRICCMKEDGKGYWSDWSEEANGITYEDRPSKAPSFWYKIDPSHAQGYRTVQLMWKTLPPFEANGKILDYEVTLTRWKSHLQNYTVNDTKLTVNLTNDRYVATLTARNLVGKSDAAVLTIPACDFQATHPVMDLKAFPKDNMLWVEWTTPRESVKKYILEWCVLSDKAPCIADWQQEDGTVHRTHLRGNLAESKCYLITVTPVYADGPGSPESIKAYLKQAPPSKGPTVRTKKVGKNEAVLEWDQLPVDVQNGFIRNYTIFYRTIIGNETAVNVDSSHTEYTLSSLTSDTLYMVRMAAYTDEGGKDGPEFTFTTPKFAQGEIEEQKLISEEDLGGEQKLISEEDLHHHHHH

B1: MAb16680 (antibody, V domains shown)
VH: QVQLQQSGPGQMKSSQTLTLTCAISGDSVSSNSAIWYWIRQSPSRGLEWLGRTKFRSKWYNDFALSMKSRITINPDTSKNQFSLHLNSVTPEDTAVYYCARYKWELYFDYWGQGTLVTVSS
VL: not shown
notes: captured through anti-human Fc
B2: MAb16683 (antibody, V domains shown)
VH: QVQLVESGGGLVKPGGSLRLSCAASGFTFSDYYMTWIRQTPGKGLDWVSYISSSGTNKYNADSVKGRFTISRDNAKNSLYLQMNSLRAEDTAVYYCVRDPPWGMDVWGQGTTVTVSS
VL: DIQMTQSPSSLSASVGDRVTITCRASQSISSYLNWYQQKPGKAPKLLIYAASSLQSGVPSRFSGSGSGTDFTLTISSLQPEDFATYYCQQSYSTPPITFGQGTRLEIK
B3: MAb16676 (antibody, V domains shown)
VH: QVQLVQSGAEVMKPGASVKVSCRASGYTFSSYDINWVRQAPGQGLEWMGWISTATGNTNYPQKVQGRVTMTTDTSTNTAYMELRSLRSDDTAVYYCTREGNSKGWLDPWGQGTLVTVSS
VL: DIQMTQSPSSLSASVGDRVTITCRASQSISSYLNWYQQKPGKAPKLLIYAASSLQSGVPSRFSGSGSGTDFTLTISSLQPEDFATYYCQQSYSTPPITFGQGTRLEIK
B4: MAb16682 (antibody, V domains shown)
VH: EVQLVESGGGLVQPGGSLRLSCAASGFTFSTYWMNWVRQAPGKGLEWVANIKEDGSEKYYVDSVKGRFTISRDNAKNSLYLQMNSLRAEDTAVYYCAREGFGVVTYIWGQGTMVTVSS
VL: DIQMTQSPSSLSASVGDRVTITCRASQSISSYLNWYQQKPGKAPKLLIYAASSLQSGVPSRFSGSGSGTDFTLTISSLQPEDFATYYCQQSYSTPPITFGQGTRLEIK
B5: MAb16673 (antibody, V domains shown)
VH: EVQLVQSGAEVKKPGESLKISCKGSGYSFTSYWIDWVRQMPGKGLEWMGIIYPDDSDTRYSPSFQGQVTMSVDKSISTAYLQWSSLKASDTAIYYCARHERGIVEAGTDYYYYYGMDVWGQGTTVTVSS
VL: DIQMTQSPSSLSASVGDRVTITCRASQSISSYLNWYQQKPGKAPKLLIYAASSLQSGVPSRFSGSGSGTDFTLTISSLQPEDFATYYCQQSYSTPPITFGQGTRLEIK
B6: MAb16669 (antibody, V domains shown)
VH: EVQLVESGGGLVQPGGSLRLSCAASGFTFSSYAMNWVRQAPGKGLEWVSAISGSGDSTYYTDSVKGRFTISRDNSKNTLYLQMNTLRAEDTAVYYCAKEEIVMLVGATPGWFDPWGQGTLVTVSS
VL: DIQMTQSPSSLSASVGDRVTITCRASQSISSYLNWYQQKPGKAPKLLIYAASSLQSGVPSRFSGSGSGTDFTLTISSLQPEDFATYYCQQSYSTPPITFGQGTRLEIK
B7: MAb16680 (antibody, V domains shown)
VH: B1 VH
VL: not shown
notes: hIgG4 isotype control used

One assay concerns the target T2, mouse GP130 extracellular domain expressed with a C-terminal myc-myc-hexahistidine tag (mGP130-mmH) (mouse, UniProt Q00560 23-617).
T2 construct: Monomeric; the entry includes the myc-myc-His tag
Description: SPR Biacore, mAb captured via anti-hFc, 25 C. The protocol:
(§1) Equilibrium dissociation constant (KD) for different GP130 reagents binding to purified anti-GP130 monoclonal antibodies were determined using a real-time surface plasmon resonance based Biacore 4000 biosensor. All binding studies were performed in 10 mM HEPES, 150 mM NaCl, 3 mM EDTA, and 0.05% v/v Surfactant Tween-20, pH 7.4 (HBS-ET) running buffer at 25° C. and 37° C. The Biacore sensor surface was first derivatized by amine coupling with a monoclonal mouse anti-human Fc antibody (GE, #BR-1008-39) to capture anti-GP130 monoclonal antibodies. […] Reagents tagged with “mmH” are monomeric, whereas reagents tagged with “mFc” are dimeric. Thus, for example, “hGP130-mmH” is also referred to as “monomeric human GP130,” and “hGP130-mFc” is also referred to as “dimeric human GP130.”
(§2) The association rate (k a) and dissociation rate (kd) were determined by fitting the real-time binding sensorgrams to a 1:1 binding model with mass transport limitation using Scrubber 2.0c curve-fitting software. Binding dissociation equilibrium constant (KD) and dissociative half-life (t ½) were calculated from the kinetic rates as: […]
In general terms: Surface plasmon resonance follows binding to a sensor surface in real time, without labels.
For the molecule B1, the “100 nM Ag Bound (RU)” value was 0 RU.

The target of a further assay is T3, rat GP130 extracellular domain expressed with a C-terminal myc-myc-hexahistidine tag (rGP130-mmH) (rat, UniProt P40190 23-618).
T3 construct: Monomeric; the entry includes the myc-myc-His tag
Briefly: SPR Biacore, mAb captured via anti-hFc, 25 C. The protocol:
as §1, §2
With B1, the “100 nM Ag Bound (RU)” value worked out at 2 RU and the binding result was “no binding (tested: 100 nM)”.

Another assay has as its target T1, Macaca fascicularis GP130 extracellular …. Description: SPR (Biacore 4000), mAb captured on anti-human Fc, 37 C. How it is done: as §1, §2
Take B2: the “100 nM Ag Bound” value amounted to 43 RU; binding was characterised by a dissociation constant (Kd) of 125 nM; the koff (as a rule, a measure of how fast the partners let go of each other) amounted to 0.0121 s⁻¹; the kon – broadly, the second-order rate constant of association – came to 96500 M⁻¹ s⁻¹. The t½ (commonly how long it takes for the measured level to halve) came out at 1 min.
In the case of B3, the “100 nM Ag Bound” value was determined as 48 RU, the Kd (commonly the concentration at which binding is half-saturated) was found to be 7.12 nM, the koff turned out to be 0.00243 s⁻¹ and the kon amounted to 341000 M⁻¹ s⁻¹. Further, the t½ is 5 min.
Regarding B4, the “100 nM Ag Bound” value worked out at 15 RU, the Kd is 124 nM, the koff came to 0.0386 s⁻¹ and the kon was 311000 M⁻¹ s⁻¹. In addition, the t½ is 0.3 min.
With B5, the “100 nM Ag Bound” value was 64 RU, the Kd came out at 34.1 nM, the koff is 0.0211 s⁻¹ and the kon worked out at 617000 M⁻¹ s⁻¹. This molecule also came in with a t½ of 0.5 min.
Turning to B6, the “100 nM Ag Bound” value turned out to be 8 RU.

A further assay addresses T4, human GP130 extracellular domain expressed with a C-terminal myc-myc-hexahistidine tag (human, UniProt P40189 23-619).
T4 construct: Monomeric reagent; also called hGP130-mmH; hGP130-MMH
Described as above. The protocol: as §1, §2
On to B2, for which the “100 nM Ag Bound” value is 38 RU, binding was put at a Kd of 117 nM, the koff was found to be 0.0125 s⁻¹ and the kon is 107000 M⁻¹ s⁻¹. In addition, the t½ was found to be 0.9 min.
For B3, in that order: 52 RU, 6.01 nM, 0.00236 s⁻¹, 393000 M⁻¹ s⁻¹ and 5 min.
As for B4, the “100 nM Ag Bound” value stood at 16 RU, the Kd is 113 nM, the koff amounted to 0.0341 s⁻¹ and the kon was 301000 M⁻¹ s⁻¹. This molecule also showed a t½ of 0.3 min.
For B5, in that order: 40 RU, 75.4 nM, 0.0404 s⁻¹, 536000 M⁻¹ s⁻¹ and 0.3 min.
As to B6, the “100 nM Ag Bound” value is 25 RU; the affinity, expressed as Kd, was 19.3 nM; the koff amounted to 0.00106 s⁻¹; the kon turned out to be 55100 M⁻¹ s⁻¹. This molecule gave a t½ of 11 min.

Another assay deals with T2, mouse GP130 extracellular domain …. Briefly: SPR Biacore, mAb captured via anti-hFc, 37 C. How it is done: as §1, §2
Take B1: the “100 nM Ag Bound (RU)” value was 0 RU and the binding result was “no binding (tested: 100 nM)”.

The target of a further assay is T3, rat GP130 extracellular domain …. Briefly: SPR Biacore, mAb captured via anti-hFc, 37 C. The protocol: as §1, §2
As to B1, the “100 nM Ag Bound (RU)” value stood at 1 RU.

A further assay concerns the target T1, Macaca fascicularis GP130 extracellular …. Briefly: SPR (Biacore 4000), mAb captured on anti-human Fc, 25 C. The protocol: as §1, §2
Consider B2, for which the “100 nM Ag Bound” value worked out at 59 RU, the Kd was found to be 37.4 nM, the koff amounted to 0.00246 s⁻¹ and the kon turned out to be 65700 M⁻¹ s⁻¹. In addition, the t½ amounted to 5 min.
As to B3, the “100 nM Ag Bound” value amounted to 49 RU, the Kd came out at 2.2 nM, the koff was 0.000597 s⁻¹ and the kon is 272000 M⁻¹ s⁻¹. The molecule further registered a t½ of 19 min.
As to B4, the “100 nM Ag Bound” value was 20 RU, the Kd turned out to be 132 nM, the koff was found to be 0.0168 s⁻¹ and the kon was found to be 128000 M⁻¹ s⁻¹. The molecule also had a t½ of 0.7 min.
Turning to B5, the “100 nM Ag Bound” value is 86 RU, the Kd stood at 22.2 nM, the koff was 0.00693 s⁻¹ and the kon was 312000 M⁻¹ s⁻¹. The same molecule came in with a t½ of 1.7 min.
Turning to B6, the “100 nM Ag Bound” value came out at 3 RU and the binding result is on record as “no binding (tested: 100 nM)”.

The next assay has as its target T5, human GP130 delta D1-D3 with C-terminal myc-myc hexahistidine tag (human, UniProt P40189 329-619).
T5 construct: used as CHO supernatant; also called human GP130 delta D1-D3-MMH; GP130 Delta D1-D3 extracellular domain
Description: Luminex, antigen captured on anti-myc beads. How it is done:
Aliquots of microspheres with immobilized anti-myc monoclonal antibodies, prepared as described above, were added individually to 1 mL of the each of these protein supernatants and to 500 uL of purified GP130 protein. The microspheres were gently mixed, incubated for two hours at 25° C., washed twice with 1 mL of DBPS, centrifuged to remove the supernatant and finally resuspended in 1 mL of DPBS buffer. Forty eight μL of anti-myc IgG coupled microspheres from individual reactions with full length human GP130 and with each of the human GP130 domain proteins were withdrawn and mixed together in 3.6 mL of PBS+20 mg/mL BSA+0.05% sodium azide (blocking buffer).
From this mixed pool, 75 μL of microspheres were plated per well on a 96 well filter plate (Millipore, Cat. No: MSBVN1250) and mixed with 25 μL of individual anti-human GP130 monoclonal antibodies (0.5 or 5 μg/mL), incubated for two hours at 25° C. and then washed twice with 200 μL of DPBS with 0.05% Tween 20 (washing buffer). To detect and quantify the amounts of bound anti-GP130 antibody levels to individual microspheres, either 100 μL of 2.5 μg/mL R-Phycoerythrin conjugated goat F(ab′)2 anti-human kappa (Southern Biotech, Cat #2063-09) in blocking buffer, was added and incubated for 30 minutes at 25° C. After 30 minutes, the samples were washed twice with 200 μL of washing buffer and resuspended in 150 μL of wash buffer. The Median Fluorescence intensity (MFI) of the microspheres was measured in a Luminex Analyzer.
As to B7, the “Luminex MFI signal” value turned out to be 18700 MFI.

Source of the values: patent publication US20240158497A1 (published 2024).
